Test results taken from patent publication US20170037110A1 (IMMATICS BIOTECHNOLOGIES, published 2017).

These binders were tested against T1, HLA-A*02:01 (human) (assay: UV peptide exchange ELISA).
T1 construct: monomers captured on streptavidin plates; also called MHC class I
Description: Candidate peptides for T cell based therapies according to the present invention were further tested for their MHC binding capacity (affinity). The individual peptide-MHC complexes were produced by UV-ligand exchange, where a UV-sensitive peptide is cleaved upon UV-irradiation, and exchanged with the peptide of interest as analyzed. Only peptide candidates that can effectively bind and stabilize the peptide-receptive MHC molecules prevent dissociation of the MHC complexes. To determine the yield of the exchange reaction, an ELISA was performed based on the detection of the light chain (p2m) of stabilized MHC complexes.
96 well MAXISorp plates (NUNC) were coated over night with 2 μg/ml streptavidin in PBS at room temperature, washed 4× and blocked for 1 h at 37° C. in 2% BSA containing blocking buffer. […] Peptide-MHC monomers of the UV-exchange reaction were diluted 100 fold in blocking buffer. Samples were incubated for 1h at 37° C., washed four times, incubated with 2 μg/ml HRP conjugated anti-p2m for 1h at 37° C., washed again and detected with TMB solution that is stopped with […]. Absorption was measured at 450 nm.

QLLHVGVTV and VLLPNDLLEKV fall in the same range of peptide exchange yield: 50 to 75% for the first, 50 to 75% for the second.

TLLAFIMEL and VLPDPEVLEAV fall in the same range of peptide exchange yield: 50 to 75% for the first, 50 to 75% for the second.

First: YLNDLHEVLL
Second: FLSPQQPPLLL
The peptide exchange yield of the first is higher: no less than 75% for the first, 20 to 50% for the second.

ILRESTEEL and FLFPNQYVDV fall in the same range of peptide exchange yield: 50 to 75% for the first, 50 to 75% for the second.

Compared with YLVAKLVEV, GLLEAKVSL is higher in peptide exchange yield: 20 to 50% for the first, 50 to 75% for the second.

LLLDEEGTFSL and YLVYILNEL fall in the same range of peptide exchange yield: 20 to 50% for the first, 20 to 50% for the second.

VLLTFKIFL and ALMEDTGRQML fall in the same range of peptide exchange yield: 20 to 50% for the first, 20 to 50% for the second.

TLIDAQWVL and LLADVVPTT fall in the same range of peptide exchange yield: 50 to 75% for the first, 50 to 75% for the second.

FMVDNEAIYDI and LLIGTDVSL cannot be ordered by peptide exchange yield: no less than 75% for the first, 50 to 75% for the second.

LLVSNLDFGV and ALYIGDGYVIHLA fall in the same range of peptide exchange yield: 50 to 75% for the first, 50 to 75% for the second.

LLLNELPSV and ALGNTVPAV fall in the same range of peptide exchange yield: 50 to 75% for the first, 50 to 75% for the second.

First: FLPPEHTIVYI
Second: RLPGPLGTV
The peptide exchange yield of the first is higher: 50 to 75% for the first, 20 to 50% for the second.

Compared with LLDGFLVNV, YVLEFLEEI is lower in peptide exchange yield: 50 to 75% for the first, 20 to 50% for the second.

SLVEVNPAYSV and ALFTFSPLTV fall in the same range of peptide exchange yield: 50 to 75% for the first, 50 to 75% for the second.

First: RVLEVGALQAV
Second: FLNEFFLNV
The peptide exchange yield of the first is lower: 20 to 50% for the first, 50 to 75% for the second.

ALMNTLLYL and LLPPLESLATV fall in the same range of peptide exchange yield: 20 to 50% for the first, 20 to 50% for the second.

First: ALQDFLLSV
Second: ILVDWLVEV
The peptide exchange yield of the first is higher: 50 to 75% for the first, 10 to 20% for the second.

First: ILVDWLVQV
Second: ALWGGTQPLL
The peptide exchange yield of the first is higher: 50 to 75% for the first, 20 to 50% for the second.

NLFQSVREV and ALYTGFSILV fall in the same range of peptide exchange yield: 20 to 50% for the first, 20 to 50% for the second.

First: GLDAATATV
Second: YLFPGIPEL
The peptide exchange yield of the first is lower: 20 to 50% for the first, 50 to 75% for the second.

AMQEYIAVV and ELAERVPAI fall in the same range of peptide exchange yield: 20 to 50% for the first, 20 to 50% for the second.

QLLDVVLTI and LLFGGTKTV fall in the same range of peptide exchange yield: 20 to 50% for the first, 20 to 50% for the second.

AAFAGKLLSV and SLLKVLPAL fall in the same range of peptide exchange yield: 50 to 75% for the first, 50 to 75% for the second.

First: VLFQGQASL
Second: VLSETLYEL
The peptide exchange yield of the first is higher: 50 to 75% for the first, 20 to 50% for the second.

SIFSAFLSV and ALLEASGTLLL cannot be ordered by peptide exchange yield: 50 to 75% for the first, no less than 75% for the second.

Compared with SMIDDLLGV, MLYVVPIYL is lower in peptide exchange yield: 50 to 75% for the first, 20 to 50% for the second.

KITDTLIHL and ALSEEGLLVYL fall in the same range of peptide exchange yield: 50 to 75% for the first, 50 to 75% for the second.

YLISFQTHI and AAYGGLNEKSFV fall in the same range of peptide exchange yield: 50 to 75% for the first, 50 to 75% for the second.

VLASYNLTV and NLINEINGV fall in the same range of peptide exchange yield: 50 to 75% for the first, 50 to 75% for the second.

Compared with ALLEAQDVELYL, LLWEVVSQL is higher in peptide exchange yield: 20 to 50% for the first, 50 to 75% for the second.

SLFGGTEITI and SLQEQLHSV fall in the same range of peptide exchange yield: 50 to 75% for the first, 50 to 75% for the second.

VLLEIEDLQV and LVYPLELYPA cannot be ordered by peptide exchange yield: no less than 75% for the first, 50 to 75% for the second.

Compared with GLLPGDRLVSV, SLLFSLFEA is lower in peptide exchange yield: 50 to 75% for the first, 20 to 50% for the second.

First: LLWGDLIWL
Second: AIAYILQGV
The peptide exchange yield of the first is higher: 50 to 75% for the first, 20 to 50% for the second.

ILLSQTTGV and ILLEQAFYL fall in the same range of peptide exchange yield: 50 to 75% for the first, 50 to 75% for the second.
